From paper PMC5764952 (2018)

B1: Untagged murine saposin A (SapA) [mouse] / His6-tagged murine β-galactocerebrosidase (GALC) [modified: glycosylated; glycosylated] [mouse] (parent)
chain 1: MGKSLPCDICKTVVTEAGNLLKDNATQEEILHYLEKTCEWIHDSSLSASCKEVVDSYLPVILDMIKGEMSNPGEVCSALNLCQSLQE
chain 2: YVLDDSDGLGREFDGIGAVSGGGATSRLLVNYPEPYRSEILDYLFKPNFGASLHILKVEIGGDGQTTDGTEPSHMHYELDENYFRGYEWWLMKEAKKRNPDIILMGLPWSFPGWLGKGFSWPYVNLQLTAYYVVRWILGAKHYHDLDIDYIGIWNERPFDANYIKELRKMLDYQGLQRVRIIASDNLWEPISSSLLLDQELWKVVDVIGAHYPGTYTVWNAKMSGKKLWSSEDFSTINSNVGAGCWSRILNQNYINGNMTSTIAWNLVASYYEELPYGRSGLMTAQEPWSGHYVVASPIWVSAHTTQFTQPGWYYLKTVGHLEKGGSYVALTDGLGNLTIIIETMSHQHSMCIRPYLPYYNVSHQLATFTLKGSLREIQELQVWYTKLGTPQQRLHFKQLDTLWLLDGSGSFTLELEEDEIFTLTTLTTGRKGSYPPPPSSKPFPTNYKDDFNVEYPLFSEAPNFADQTGVFEYYMNNEDREHRFTLRQVLNQRPITWAADASSTISVIGDHHWTNMTVQCDVYIETPRSGGVFIAGRVNKGGILIRSATGVFFWIFANGSYRVTADLGGWITYASGHADVTAKRWYTLTLGIKGYFAFGMLNGTILWKNVRVKYPGHGWAAIGTHTFEFAQFDNFRVEAAR

Variants of: B1
Test: pull-down (immobilised GALC, Coomassie SDS-PAGE, quantified)
Settings: with His6-tagged murine β-galactocerebrosidase (GALC) [modified: glycosylated, in the presence of Tween-20, n = 3, read off a plot

| ratio to parent | Variant |
| --- | --- |
| 1.3 | chain 1 MGKSLPCDICKTVVTEAGNLLKDYATQEEILHYLEKTCEWIHDSSLSASCKEVVDSYLPVILDMIKGEMSNPGEVCSALNLCQSLQE |
